Experimental data reported in US7364741.

B1: … (residues 93-101 of HPV16 protein E6) (peptide)
peptide: TTLEQQYNK
modifications: not checked
B2: … (residues 89-97 of HPV16 protein E6) (peptide)
peptide: SLYGTTLEQ
modifications: not checked
B3: … (residues 42-50 of HPV16 protein E6) (peptide)
peptide: QQLLRREVY
modifications: not checked
B4: … (residues 59-67 of HPV16 protein E6) (peptide)
peptide: IVYRDGNPY
modifications: not checked
B5: … (residues 125-133 of HPV16 protein E6) (peptide)
peptide: HLDKKQRFH
modifications: not checked
B6: … (residues 7-15 of HPV16 protein E6) (peptide)
peptide: AMFQDPQER
modifications: not checked
B7: probe peptide … for A3.2 (peptide)
peptide: KVFPYALINK
modifications: not checked
B8: … (residues 75-83 of HPV16 protein E6) (peptide)
peptide: KFYSKISEY
modifications: not checked
B9: … (residues 37-45 of HPV16 protein E7) (peptide)
peptide: EIDGPAGQA
modifications: not checked
B10: … (residues 73-81 of HPV16 protein E7) (peptide)
peptide: HVDIRTLED
modifications: not checked
B11: … (residues 61-69 of HPV16 protein E6) (peptide)
peptide: YRDGNPYAV
modifications: not checked
B12: … (residues 49-57 of HPV16 protein E6) (peptide)
peptide: VYDFAFRDL
modifications: not checked
B13: … (residues 49-57 of HPV16 protein E7) (peptide)
peptide: RAHYNIVTF
modifications: not checked
B14: … (residues 1-9 of HPV16 protein E6) (peptide)
peptide: MHQKRTAMF
modifications: not checked
B15: … (residues 131-139 of HPV16 protein E6) (peptide)
peptide: RFHNIRGRW
modifications: not checked
B16: … (residues 44-52 of HPV16 protein E6) (peptide)
peptide: LLRREVYDF
modifications: not checked
B17: … (residues 36-44 of HPV18 protein E6) (peptide)
peptide: KTVLELTEV
modifications: not checked
B18: … (residues 79-87 of HPV16 protein E6) (peptide)
peptide: KISEYRHYC
modifications: not checked
B19: … (residues 11-19 of HPV16 protein E7) (peptide)
peptide: YMLDLQPET
modifications: not checked
B20: … (residues 85-93 of HPV16 protein E7) (peptide)
peptide: GTLGIVCPI
modifications: not checked
B21: … (residues 22-30 of HPV16 protein E6) (peptide)
peptide: LCTELQTTI
modifications: not checked
B22: … (residues 88-96 of HPV18 protein E7) (peptide)
peptide: QLFLNTLSF
modifications: not checked
B23: … (residues 12-20 of HPV16 protein E7) (peptide)
peptide: MLDLQPETT
modifications: not checked
B24: … (residues 89-97 of HPV18 protein E7) (peptide)
peptide: LFLNTLSFV
modifications: not checked
B25: … (residues 78-86 of HPV16 protein E7) (peptide)
peptide: TLEDLLMGT
modifications: not checked
B26: … (residues 94-102 of HPV18 protein E7) (peptide)
peptide: LSFVCPWCA
modifications: not checked
B27: … (residues 88-96 of HPV18 protein E6) (peptide)
peptide: DTLEKLTNT
modifications: not checked
B28: … (residues 29-37 of HPV16 protein E6) (peptide)
peptide: TIHDIILEC
modifications: not checked
B29: … (residues 93-101 of HPV18 protein E6) (peptide)
peptide: LTNTGLYNL
modifications: not checked
B30: … (residues 86-94 of HPV18 protein E7) (peptide)
peptide: FQQLFLNTL
modifications: not checked
B31: … (residues 47-55 of HPV18 protein E6) (peptide)
peptide: FAFKDLFVV
modifications: not checked
B32: … (residues 24-32 of HPV18 protein E6) (peptide)
peptide: SLQDIEITC
modifications: not checked
B33: … (residues 102-110 of HPV16 protein E6) (peptide)
peptide: PLCDLLIRC
modifications: not checked
B34: … (residues 66-74 of HPV16 protein E7) (peptide)
peptide: RLCVQSTHV
modifications: not checked
B35: … (residues 30-38 of HPV16 protein E6) (peptide)
peptide: IHDIILECV
modifications: not checked
B36: … (residues 37-45 of HPV16 protein E6) (peptide)
peptide: CVYCKQQLL
modifications: not checked
B37: … (residues 29-37 of HPV18 protein E6) (peptide)
peptide: EITCVYCKT
modifications: not checked
B38: … (residues 21-29 of HPV16 protein E6) (peptide)
peptide: QLCTELQTT
modifications: not checked
B39: … (residues 13-21 of HPV18 protein E6) (peptide)
peptide: KLPDLCTEL
modifications: not checked
B40: … (residues 40-48 of HPV18 protein E6) (peptide)
peptide: ELTEVFEFA
modifications: not checked

Target: T1, HLA-A3.2 molecules isolated from the EBV transformed cell line GM3107 (human)
Assay: competition with radiolabeled probe [..], purified HLA-A3.2; IC50 standard / IC50 peptide
Settings: not given

| Binder | binding ratio to standard |
| --- | --- |
| B1 | 0.078 |
| B2 | 0.008 |
| B3 | 0.0058 |

Same assay, conditions: remark: other sources report otherwise

| Binder | binding ratio to standard |
| --- | --- |
| B4 | 3 |
| B5 | 0.44 |
| B6 | 0.1 |

Target: T1, HLA-A3.2 molecules isolated from the …
Assay: not given
Settings: not given

| Binder | IC50 [nM] |
| --- | --- |
| B7 | 30 |

Same assay, conditions: remark: other sources report otherwise

| Binder | binding ratio to standard |
| --- | --- |
| B8 | 0.01 |

Target: HLA-A11.2 molecules isolated from the cell line BVR (human)
Assay: competition with radiolabeled probe [..], purified HLA-A11.2; IC50 standard / IC50 peptide
Settings: not given

| Binder | binding ratio to standard |
| --- | --- |
| B3 | 0.0084 |

Same assay, conditions: remark: other sources report otherwise

| Binder | binding ratio to standard |
| --- | --- |
| B4 | 0.47 |
| B6 | 0.84 |

Target: HLA-A1 molecules isolated from the EBV transformed cell line Steinlin (human)
Assay: competition with radiolabeled probe [..], purified HLA-A1; IC50 standard / IC50 peptide
Settings: not given

| Binder | binding ratio to standard |
| --- | --- |
| B9 | 0.025 |
| B10 | 0.014 |
| B11 | 0.008 |

Target: HLA-A24 molecules isolated from the EBV transformed cell line KT3 (human)
Assay: competition with radiolabeled probe [..], purified HLA-A24; IC50 standard / IC50 peptide
Settings: not given

| Binder | binding ratio to standard |
| --- | --- |
| B12 | 0.061 |
| B13 | 0.067 |
| B14 | 0.0049 |
| B15 | 0.1 |
| B16 | 0.0023 |

Target: HLA-A2.1 molecules expressed by 174CEM.T2 cells (human)
Assay: T2 HLA-A2.1 stabilisation, flow cytometry (BB7.2), peptide 200 ug/ml
Settings: not given

| Binder | FI (Fluorescence Index) | MF (mean fluorescence) |
| --- | --- | --- |
| B17 | 2.3 | 468 |
| B18 | 2.2 | 212 |
| B19 | 3.3 | 284 |
| B20 | 2.3 | 216 |
| B21 | 0.7 | 114 |
| B22 | 0.8 | 258 |
| B23 | 2.3 | 218 |
| B24 | 1.6 | 360 |
| B25 | 1.8 | 183 |
| B26 | 0.9 | 262 |
| B27 | 0.7 | 238 |
| B28 | 1.8 | 184 |
| B29 | 1.5 | 352 |
| B30 | 0.8 | 244 |
| B31 | 2.3 | 463 |
| B32 | 0.7 | 244 |
| B33 | 2.1 | 205 |
| B34 | 2.8 | 250 |
| B35 | 1.3 | 151 |

Same assay, conditions: remark: other sources report otherwise

| Binder | FI (Fluorescence Index) | MF (mean fluorescence) |
| --- | --- | --- |
| B36 | 2 | 195 |
| B37 | 0.5 | 206 |
| B38 | 2.2 | 212 |
| B39 | 2.1 | 439 |
| B40 | 1.1 | 289 |
